Laboratory results from patent publication US20210393800A1, “PREPARATION AND APPLICATION OF SUPRAMOLECULAR SELF-ASSEMBLED HYALURONIC ACID HYDROGEL” (PHI BioMed Inc., priority 2018, published 2021).

Experiment: Protein release experiment (EGF in supernatant by HPLC)
Format: physicochemical
Conditions: 20 ug/ml in HA-Ad/HA-CD hydrogel, 500 ul PBS; for amount of EGF released over time (rank order): supernatant by HPLC according to date
Description: Aldehyde groups were introduced to the hyaluronic acid-adamantane (HA-Ad) derivative and hyaluronic acid (HA) using […].
The HA-Ad derivative and HA, to which the aldehyde group had been introduced, were allowed to react with an EGF protein using sodium cyanoborohydride to induce an aldehyde-amine reaction, thereby preparing conjugates. Through the aldehyde-amine reaction, a HA-Ad-EGF conjugate and a HA-EGF conjugate were prepared.
Each of EGF, the prepared HA-Ad-EGF conjugate, and the prepared HA-EGF conjugate was added at a concentration of 20 ug/ml to a 5 wt % hyaluronic acid-adamantane (HA-Ad) derivative solution. 50 ul of a 5 wt % hyaluronic acid-cyclodextrin (HA-CD) derivative solution was added to 50 ul of each of the resulting solutions and then mixed to prepare a hydrogel.
The hydrogel was input into an E-tube and centrifuged to remove air bubbles inside the gel. 500 ul of PBS was added to each hydrogel.
The concentration of EGF included in a supernatant was analyzed by high-performance liquid chromatography (HPLC) according to date.

Substance | amount of EGF released over time (rank order) | protein release behaviour
EGF: EGF protein used by itself in preparation of the hydrogel | HA-Ad-EGF<HA-EGF<EGF | 
HA-EGF: EGF protein bound to aldehyde-modified hyaluronic acid through an aldehyde-amine reaction; carried in the hydrogel | HA-Ad-EGF<HA-EGF<EGF | 
HA-Ad-EGF: EGF protein bound to aldehyde-modified HA-Ad derivative through an aldehyde-amine reaction; carried in the hydrogel | HA-Ad-EGF<HA-EGF<EGF | release a constant concentration of protein most slowly for a long period of time
